The test has as its target Escherichia coli β subunit of DNA Polymerase III (β protein) (Escherichia coli), P0A988.

Values joined by “and” are separate entries in the source; they are usually repeats but may differ in a detail not shown here. Identical values can stand only once.

Sequence of Escherichia coli β subunit of DNA Polymerase III (β protein) (Escherichia coli), P0A988 (P0A988 whole entry): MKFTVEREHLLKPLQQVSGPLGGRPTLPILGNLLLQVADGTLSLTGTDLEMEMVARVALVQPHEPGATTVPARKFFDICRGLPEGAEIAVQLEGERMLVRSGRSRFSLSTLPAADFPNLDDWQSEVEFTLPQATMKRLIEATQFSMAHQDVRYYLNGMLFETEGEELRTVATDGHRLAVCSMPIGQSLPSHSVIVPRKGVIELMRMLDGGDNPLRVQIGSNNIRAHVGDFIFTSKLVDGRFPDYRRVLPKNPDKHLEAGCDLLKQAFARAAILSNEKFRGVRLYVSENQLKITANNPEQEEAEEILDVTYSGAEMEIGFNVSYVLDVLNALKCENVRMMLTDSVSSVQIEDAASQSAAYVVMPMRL

In general, IC50 refers to the concentration that gives 50% inhibition. Consider EAQLDLFDS (modifications not checked) [peptide 112d … (UmuC1, native flanking sequences)], for which the IC50 is 1000 nM and 3600 nM.

Values taken from patent US20040132121A1, “Method of identifying antibacterial compounds” (priority 2000, published 2004).
